Residue numbers refer to the chain shown, from its start.

Experimental findings from patent US20240327535A1 (EISAI R AND D MANAGEMENT, published 2024) are described below.

To fix the notation:
T1: extracellular domain of human BCMA (human, UniProt Q02223 1-54)
T1 construct: amine-linked to Octet AR2G tips; also called hsBCMA; BCMA (human)
T1 sequence: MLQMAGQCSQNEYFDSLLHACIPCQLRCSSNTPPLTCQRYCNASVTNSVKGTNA

B1: AB200-R1a-Fab_Vk1 (Fab, V domains shown)
VH: QVQLVQSGAEVKKPGSSVKVSCKASGGTFSNYWMHWVRQAPGQGLEWMGATYRGHSDTYYNQKFKGRVTITADKSTSTAYMELSSLRSEDTAVYYCARGAIYHGYDVLDNWGQGTLVTVSS
VL: DIQMTQSPSSLSASVGDRVTITCRASQDISSYLNWYQQKPGKAPKLLIYYTSNIHSGVPSRFSGSGSGTDFTLTISSLQPEDFATYYCQQYRKLPWTFGQGTKLEIKR
B2: AB200-R1a-Fab_Vk9 (Fab, V domains shown)
VH: B1 VH
VL: B1 VL with R24S, D28E, S31N, Y50A, I54L, T97S
B3: AB200-R1a-Fab_Vk17 (Fab, V domains shown)
VH: B1 VH
VL: B1 VL with R24S, S26T, S31N, S52T, I54L, R92Y
B4: AB200-R1a-Fab_Vk13 (Fab, V domains shown)
VH: B1 VH
VL: B1 VL with R24S, Q27N, S31N, T51S, N53D, I54L
B5: AB200-R1a-Fab_Vk35 (Fab, V domains shown)
VH: B1 VH
VL: B1 VL with R24S, I29L, S31N, I54L, R92K, L94I
B6: AB200-R1a-Fab(hCDR1) (Fab, V domains shown)
VH: B1 VH
VL: B1 VL with D28S, I54L
B7: AB200-R1a-Fab_Vk14 (Fab, V domains shown)
VH: B1 VH
VL: B1 VL with R24S, S31N, T51S, I54M, Y91F
B8: AB200-R1a-Fab_Vk7 (Fab, V domains shown)
VH: B1 VH
VL: B1 VL with R24S, S31N, Y32F, I54L, Y91F, L94M
B9: AB200-R1a-Fab_Vk16 (Fab, V domains shown)
VH: B1 VH
VL: B1 VL with R24S, S30T, S31N, Y50A, I54L, Q90E
B10: AB200-R1a-Fab_Vk28 (Fab, V domains shown)
VH: B1 VH
VL: B1 VL with R24S, S31N, Y32F, I54M, K93S
B11: AB200-R1a-Fab_Vk29 (Fab, V domains shown)
VH: B1 VH
VL: B1 VL with R24S, Q27H, I29V, S31N, I54L, K93R
B12: AB200-R1a-Fab_Vk22 (Fab, V domains shown)
VH: B1 VH
VL: B1 VL with S31N, I54L, K93S, L94I
B13: AB200-R1a-Fab_Vk24 (Fab, V domains shown)
VH: B1 VH
VL: B1 VL with R24S, Q27N, D28S, S31N, T51A, I54L
B14: AB200-R1a-Fab_Vk30 (Fab, V domains shown)
VH: B1 VH
VL: B1 VL with R24T, D28S, S31N, L33I, I54L
B15: AB200-R1a-Fab_Vk27 (Fab, V domains shown)
VH: B1 VH
VL: B1 VL with R24S, S30T, S31N, Y50F, I54L, R92Y
B16: AB200-R1a-Fab_Vk10 (Fab, V domains shown)
VH: B1 VH
VL: B1 VL with R24S, D28S, S31N, I54L, Y91S, L94M
B17: AB200-R1a-Fab_Vk12 (Fab, V domains shown)
VH: B1 VH
VL: B1 VL with R24S, S31N, T51A, S52T, I54L, K93R
B18: AB200-R1a-Fab(hCDR3) (Fab, V domains shown)
VH: B1 VH
VL: B1 VL with R24S, S31N, I54L, Y91S, R92Y, K93S, L94T
B19: AB200-R1a-Fab_Vk6 (Fab, V domains shown)
VH: B1 VH
VL: B1 VL with R24S, S26T, S31N, Y50F, I54L, H55Q
notes: also called AB200 kappa variant 6; AB200_Vk6_Fab
B20: AB200-R1a-Fab_Vk23 (Fab, V domains shown)
VH: B1 VH
VL: B1 VL with R24S, S31N, R92K, L94M
B21: AB200-R1a-Fab_Vk4 (Fab, V domains shown)
VH: B1 VH
VL: B1 VL with R24T, S26T, S30T, S31N, I54L
B22: AB200-R1a-Fab_Vk34 (Fab, V domains shown)
VH: B1 VH
VL: B1 VL with R24S, Q27H, S31N, I54L, Q89H, Q90E
B23: AB200-R1a-Fab_Vk32 (Fab, V domains shown)
VH: B1 VH
VL: B1 VL with R24S, I29L, S31N, N53S, I54L, L94T
B24: AB200-R1a-Fab_Vk21 (Fab, V domains shown)
VH: B1 VH
VL: B1 VL with R24S, S31N, I54L, Q89H, R92K, L94T
B25: AB200-R1a-Fab_Vk8 (Fab, V domains shown)
VH: B1 VH
VL: B1 VL with R24S, S31N, I54L, H55Q, Q89H, Y91S
B26: AB200-R1a-Fab_Vk20 (Fab, V domains shown)
VH: B1 VH
VL: B1 VL with R24S, S31N, Y32F, N53D, I54L, R92Y
B27: AB200-R1a-Fab_Vk11 (Fab, V domains shown)
VH: B1 VH
VL: B1 VL with I29V, S31N, S52T, I54L
B28: AB200-R1a-Fab_Vk15 (Fab, V domains shown)
VH: B1 VH
VL: B1 VL with R24S, Q27H, D28E, S31N, N53S, I54L
B29: AB200-R1a-Fab_Vk25 (Fab, V domains shown)
VH: B1 VH
VL: B1 VL with R24S, S31N, Y50A, T51A, I54L, L94I
B30: AB200-R1a-Fab_Vk5 (Fab, V domains shown)
VH: B1 VH
VL: B1 VL with R24S, I54L, K93S, L94T
B31: AB200-R1a-Fab_Vk31 (Fab, V domains shown)
VH: B1 VH
VL: B1 VL with R24S, S31N, S56I, T97S
B32: AB200-R1a-Fab_Vk36 (Fab, V domains shown)
VH: B1 VH
VL: B1 VL with R24S, I29L, S31N, I54L, H55Q, K93R
B33: AB200-R1a-Fab_Vk26 (Fab, V domains shown)
VH: B1 VH
VL: B1 VL with R24S, S31N, T51S, N53S, I54L, S56I
B34: AB200-R1a-Fab_Vk3 (Fab, V domains shown)
VH: B1 VH
VL: B1 VL with R24S, S31N, L33I, I54M, T97S
B35: AB200-R1a-Fab_Vk2 (Fab, V domains shown)
VH: B1 VH
VL: B1 VL with R24S, D28E, I29V, S31N, I54L, Q90E
B36: AB200-R1a-Fab_Vk33 (Fab, V domains shown)
VH: B1 VH
VL: B1 VL with R24S, Y50F, I54L, Y91S
B37: AB200-R1a-Fab_Vk18 (Fab, V domains shown)
VH: B1 VH
VL: B1 VL with R24T, S31N, N53D, I54L, S56I
B38: AB200-R1a-Fab_Vk19 (Fab, V domains shown)
VH: B1 VH
VL: B1 VL with R24S, Q27N, S31N, L33I, I54L, Y91F

T2 sequence (F7FFA0 entry or part of it): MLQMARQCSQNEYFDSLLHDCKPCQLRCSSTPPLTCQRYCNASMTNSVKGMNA

One test has as its target T1, extracellular domain of human BCMA. As to the kind of experiment: Octet BLI; Fab 200 nM. For orientation: BLI is a label-free optical method that tracks binding on a fibre tip over time.
What is called Kd is the free concentration of one partner at which half of the binding sites on the other are occupied at equilibrium, for simple one-to-one binding. On to B1, for which binding was characterised by a dissociation constant (Kd) of 1.75 nM.
Same read-out and setting: in the case of B2 it was 2.04 nM; in that of B3, 4.45 nM.
Same read-out and setting: the figure for B4 is 7.14 nM; for B5 it is 7.3 nM.
Still for that read-out and setting: in the case of B6 it was 1.58 nM; in that of B7, 4.03 nM.
Turning to B8, the Kd was 14.7 nM.
Same read-out and setting: in the case of B9 it was 3.18 nM.
Still for that read-out and setting: the figure for B10 is 4.87 nM; for B11 it is 1.55 nM.
With B12, the Kd was determined as 2.48 nM.
Same read-out and setting: the figure for B13 is 5.11 nM.
Consider B14, for which the Kd was found to be 1.56 nM.
The same measure, in the same setting: the figure for B15 is 6.39 nM.
Same read-out and setting: in the case of B16 it was 110 nM.
On the same count and under the same terms, the figure for B17 is 4.89 nM; for B18 it is 82.8 nM.
Molecule B19 came in with a Kd of 1.11 nM.
B20 yielded a Kd of 16.8 nM.
On the same count and under the same terms, the figure for B21 is 2.2 nM; for B22 it is 26.5 nM; for B23 it is 11.7 nM.
Still for that read-out and setting: in the case of B24 it was 32.7 nM; in that of B25, 24.1 nM.
On the same count and under the same terms, in the case of B26 it was 12.8 nM; in that of B27, 1.53 nM; in that of B28, 2.93 nM.
Molecule B29 yielded a Kd of 3.44 nM.
Regarding B30, the Kd came out at 7.83 nM.
The molecule B31 had a Kd of 2.36 nM.
Still for that read-out and setting: in the case of B32 it was 1.43 nM; in that of B33, 5.56 nM.
Same read-out and setting: in the case of B34 it was 1.84 nM.
With B35, the Kd amounted to 4.27 nM.
Consider B36, for which binding was characterised by a dissociation constant (Kd) of 19.5 nM.
In turn, B37 displayed a Kd of 2.93 nM.
Still for that read-out and setting: in the case of B38 it was 2.07 nM.

A further test concerns the target T2, extracellular domain of rhesus monkey BCMA (rhesus monkey, UniProt F7FFA0 1-53).
T2 construct: extracellular domain; also called RhBCMA
As to the kind of experiment: Octet BLI; Fab 200 nM.
Molecule B1 showed a Kd of 6.37 nM.
Consider B2, for which the Kd was 8.03 nM.
On the same count and under the same terms, the figure for B3 is 7.71 nM.
For B4, binding was characterised by a dissociation constant (Kd) of 24.6 nM.
The same measure, in the same setting: in the case of B5 it was 18.9 nM.
Regarding B6, binding was put at a Kd of 5.3 nM.
For the molecule B7, the Kd came out at 11.5 nM.
Same read-out and setting: in the case of B8 it was 25.1 nM; in that of B9, 12.9 nM; in that of B10, 7.57 nM.
On to B11, for which the affinity, expressed as Kd, was 4.96 nM.
Still for that read-out and setting: in the case of B12 it was 9.91 nM.
Still for that read-out and setting: in the case of B13 it was 14.2 nM; in that of B14, 4.78 nM; in that of B15, 10.7 nM.
Same read-out and setting: the figure for B16 is 195 nM; for B17 it is 16.8 nM; for B18 it is 113 nM.
In the case of B19, binding was put at a Kd of 4.26 nM.
For B20, the Kd was determined as 29.7 nM.
The same measure, in the same setting: the figure for B21 is 7.9 nM; for B22 it is 74.7 nM; for B23 it is 44.7 nM.
The same measure, in the same setting: the figure for B24 is 61.4 nM.
Still for that read-out and setting: the figure for B25 is 42.1 nM.
B26 showed a Kd of 13.5 nM.
The same measure, in the same setting: in the case of B27 it was 5.74 nM; in that of B28, 9.71 nM.
Same read-out and setting: the figure for B29 is 13.6 nM; for B30 it is 27.5 nM.
Same read-out and setting: in the case of B31 it was 8.96 nM; in that of B32, 5.06 nM.
B33 registered a Kd of 17.9 nM.
Still for that read-out and setting: the figure for B34 is 6.21 nM.
The same measure, in the same setting: the figure for B35 is 14.9 nM; for B36 it is 37.4 nM.
B37 returned a Kd of 11 nM.
The same measure, in the same setting: in the case of B38 it was 5.74 nM.
